Experimental data reported in paper PMC11557873 (Nature Communications, 2024).

T1: hgp130.hFc (human gp130 aa E23-E619 with a hFc tag) (human, UniProt P40189 23-619)
T1 sequence: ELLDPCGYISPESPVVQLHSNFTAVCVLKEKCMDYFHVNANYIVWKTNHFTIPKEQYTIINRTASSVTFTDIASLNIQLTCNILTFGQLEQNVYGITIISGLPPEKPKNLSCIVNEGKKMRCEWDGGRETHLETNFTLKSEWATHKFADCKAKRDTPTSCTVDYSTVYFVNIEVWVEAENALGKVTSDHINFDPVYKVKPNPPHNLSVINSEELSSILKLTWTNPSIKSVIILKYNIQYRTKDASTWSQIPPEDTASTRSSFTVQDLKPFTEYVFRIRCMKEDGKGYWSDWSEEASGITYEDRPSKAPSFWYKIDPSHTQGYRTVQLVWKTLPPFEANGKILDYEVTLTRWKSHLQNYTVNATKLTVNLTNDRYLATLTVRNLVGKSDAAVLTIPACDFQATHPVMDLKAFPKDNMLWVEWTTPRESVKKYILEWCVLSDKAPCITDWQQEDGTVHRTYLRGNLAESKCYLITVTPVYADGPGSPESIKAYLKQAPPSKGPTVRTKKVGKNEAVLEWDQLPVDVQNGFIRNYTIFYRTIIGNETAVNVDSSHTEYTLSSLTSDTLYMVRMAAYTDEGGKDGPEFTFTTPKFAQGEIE

B1: short form hOSM WT (hOSM_short, aa A26-R221), C-terminal myc-myc-His (ligand)
chain: AAIGSCSKEYRVLLGQLQKQTDLMQDTSRLLDPYIRIQGLDVPKLREHCRERPGAFPSEETLRGLGRRGFLQTLNATLGCVLHRLADLEQRLPKAQDLERSGLNIEDLEKLQMARPNILGLRNNIYCMAQLLDNSDTAEPTKAGRGASQPPTPTPASDAFQRKLEGCRFLHGYHRFMHSVGRVFSKWGESPNRSRR
B2: short form hOSM mutant V37R (ligand)
chain: AAIGSCSKEYRRLLGQLQKQTDLMQDTSRLLDPYIRIQGLDVPKLREHCRERPGAFPSEETLRGLGRRGFLQTLNATLGCVLHRLADLEQRLPKAQDLERSGLNIEDLEKLQMARPNILGLRNNIYCMAQLLDNSDTAEPTKAGRGASQPPTPTPASDAFQRKLEGCRFLHGYHRFMHSVGRVFSKWGESPNRSRR
B3: short form hOSM variant C31S/C152S (ligand)
chain: AAIGSSSKEYRVLLGQLQKQTDLMQDTSRLLDPYIRIQGLDVPKLREHCRERPGAFPSEETLRGLGRRGFLQTLNATLGCVLHRLADLEQRLPKAQDLERSGLNIEDLEKLQMARPNILGLRNNIYSMAQLLDNSDTAEPTKAGRGASQPPTPTPASDAFQRKLEGCRFLHGYHRFMHSVGRVFSKWGESPNRSRR
B4: short form hOSM variant Δ(A26-E34)/C152S (aa Y35-R221) (ligand)
chain: YRVLLGQLQKQTDLMQDTSRLLDPYIRIQGLDVPKLREHCRERPGAFPSEETLRGLGRRGFLQTLNATLGCVLHRLADLEQRLPKAQDLERSGLNIEDLEKLQMARPNILGLRNNIYSMAQLLDNSDTAEPTKAGRGASQPPTPTPASDAFQRKLEGCRFLHGYHRFMHSVGRVFSKWGESPNRSRR

Molecular target: T1, hgp130.hFc (human gp130 aa E23-E619 …)
Experiment: SPR

| Binder | Kd [nM] | binding result |
| --- | --- | --- |
| B1 | 8.58 | – |
| B2 | – | binds |
| B3 | 69 | – |
| B4 | 40.9 | – |
